Our source for the Kd, ELISA binding value and response level (biolayer interferometry) values is patent US20190330277A1.

Experiment [1] concerns the target bRSV RB94 DSCav1 (bovine respiratory syncytial virus, strain RB94) (UniProt P23728). Description: biolayer interferometry (Octet), variant on Ni-NTA tip, Fab in solution.
For experiment [2], the target named is 391-2-DS-Cav1-BZGJ9deleteFS. The experiment in a line: ELISA, variant from culture supernatant on Ni-NTA plate [continued].
For experiment [3], the target named is bRSV RB94 DSCav1 (bovine respiratory syncytial virus, strain RB94) (UniProt P23728). The experiment in a line: biolayer interferometry Octet binding analysis.
For experiment [4] the target is unchanged.
The target in experiment [5] is 391-2-DS-Cav1-sc9 99C-361C. The experiment in a line: ELISA, variant from culture supernatant on Ni-NTA plate.
Experiment [6] deals with 391-2-DS-Cav1_ sc9_I28C-G464C. Described as above.
The target of experiment [7] is RB94 sc9 DS-CAV1 N183GC-N428C L373R Long K226L. The description is as above.
Experiment [8] addresses 391-2 sc9 DS-Cav1 98C-362C. The description is as above.
In experiment [9] the target is 391-2-DS-Cav1-sc9 99C-362C. The description is as above.
In experiment [10] the target is 391-2-DS-Cav1-sc9 100C-362C. The experiment is described as above.
Experiment [11] addresses RB94 sc9 DS-CAV1 N183GC-N428C L373R. The description is as above.
Experiment [12] addresses RB94 sc9 DS-CAV1 N183GC-N428C L373R Long. The experiment is described as above.
Experiment [13] has as its target 391-2-DS-Cav1-sc9deleteFS 98C-362C. The description is as above.

MPE8 antibody, sequence (VH): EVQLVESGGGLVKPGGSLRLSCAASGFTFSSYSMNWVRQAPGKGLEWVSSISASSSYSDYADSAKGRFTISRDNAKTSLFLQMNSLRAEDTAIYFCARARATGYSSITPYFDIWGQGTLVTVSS
MPE8 antibody, sequence (VL): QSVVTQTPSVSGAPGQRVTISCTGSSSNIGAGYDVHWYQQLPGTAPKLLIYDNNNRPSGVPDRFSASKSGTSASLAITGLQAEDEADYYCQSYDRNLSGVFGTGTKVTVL

On to MPE8 Fab, for which, in [1], the Kd turned out to be 0.2 nM.
Turning to motavizumab Fab, the Kd in [1] came to 0.9 nM. This Kd is about 4.5-fold higher than that of the substance before.
In the case of MPE8 antibody, the ELISA binding value in [2] amounted to 0.0675; in [4] it was 0.199; in experiment [5] it was 0.198; in experiment [6] it was 0.203; in experiment [7], 0.293; in experiment [8] it was 0.48. Further, the ELISA binding value in experiment [9] was 0.311; in [10], 0.131; in experiment [11], 0.322; in [12] it was 0.335; in experiment [13] it was 0.448. Also, the response level (biolayer interferometry) in [3] amounted to 0.5 nm.
In experiment [1], AM14 Fab returned a Kd of 4.9 nM.
